# Laboratory results as given in US20190201496A1 (BRIGHAM AND WOMEN S HOSPITAL, published 2019).
# B1: human alpha-fetoprotein (AFP) (ligand)
# chain: RTLHRNEYGIASILDSYQCTAEISLADLATIFFAQFVQEATYKEVSKMVKDALTAIEKPTGDEQSSGCLENQLPAFLEELCHEKEILEKYGHSDCCSQSEEGRHNCFLAHKKPTPASIPLFQVPEPVTSCEAYEEDRETFMNKFIYEIARRHPFLYAPTILLWAARYDKIIPSCCKAENAVECFQTKAATVTKELRESSLLNQHACAVMKNFGTRTFQAITVTKLSQKFTKVNFTEIQKLVLDVAHVHEHCCRGDVLDCLQDGEKIMSYICSQQDTLSNKITECCKLTTLERGQCIIHAENDEKPEGLSPNLNRFLGDRDFNQFSSGEKNIFLASFVHEYSRRHPQLAVSVILRVAKGYQELLEKCFQTENPLECQDKGEEELQKYIQESQALAKRSCGLFQKLGEYYLQNAFLVAYTKKAPQLTSSELMAITRKMAATAATCCQLSEDKLLACGEGAADIIIGHLCIRHEMTPVNPGVGQCCTSSYANRRPCFSSLVVDETYVPPAFSDDKFIFHKDLCQAQGVALQTMKQEFLINLVKQKPQITEEQLEAVIADFSGLLEKCCQGQEQEVCFAEEGQKLISKTRAALGV
# notes: also called hAFP; human AFP
# Biological target: neonatal Fc receptor (FcRn) (UniProt P55899 24-297, limits assumed)
# Test: comparison of observed KD values; the assay for FcRn is not described here
# neonatal Fc receptor (FcRn), sequence (P55899 24-297 limits assumed, form in doubt, chain 1 of 2): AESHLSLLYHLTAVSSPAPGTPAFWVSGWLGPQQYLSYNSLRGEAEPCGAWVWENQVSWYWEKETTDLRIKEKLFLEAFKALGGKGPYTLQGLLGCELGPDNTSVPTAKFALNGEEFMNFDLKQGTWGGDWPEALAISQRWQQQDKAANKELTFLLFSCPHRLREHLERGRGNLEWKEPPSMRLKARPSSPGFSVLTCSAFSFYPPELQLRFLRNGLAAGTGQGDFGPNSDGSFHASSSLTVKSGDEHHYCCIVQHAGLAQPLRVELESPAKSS
# neonatal Fc receptor (FcRn), sequence (chain, as listed by the source limits assumed, form in doubt, chain 2 of 2): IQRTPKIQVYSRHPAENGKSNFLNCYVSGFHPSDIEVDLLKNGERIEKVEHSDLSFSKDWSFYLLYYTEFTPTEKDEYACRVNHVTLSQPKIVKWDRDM
binder,measurement,value
B1,fold higher affinity than AFP to β2M,100 fold
